Experimental data taken from US20240254222A1.

B1: TPP-30791 (antibody, human IgG1, kappa, V domains shown)
VH: EVQLVESGGGLLQLGGSLRLSCAASGFTFSSYYMSWVRQAPGKGLEWVSTIIKSGGYAYYPDSVKDRFTISRDNSKNTLNLQMNSLRAEDTAVYYCVKGGQGAMDYWGQGTTVTVSS
VL: EIVLTQSPATLSLSPGERATLSCRASQSIGDYLHWYQQKPGQAPRLLIKYASQSISGIPARFSGSGSGTDFTLTISSLEPEDFAVYYCQQGYSFPYTFGGGTKLEIKR
B2: TPP-30788 (antibody, human IgG1, kappa, V domains shown)
VH: EVQLVESGGGLVQPGGSLRLSCAASGFTFSSYYMSWVRQAPGKGLEWVSTIIKSGGYAYYPDSVKDRFTISRDNSKNTLYLQMSSLRAEDTAVYYCVRGGQGAMDYWGQGTTVTVSS
VL: EIVLTQSPATLSLSPGERATLSCRASQSIGDYLHWYQQKPGQAPRLLIKYASQSISGIPARFSGSGSGTDFTLTITSLEPEDFAVYYCQQGYSFPYTFGGGTKLEIKR
B3: TPP-30790 (antibody, human IgG1, kappa, V domains shown)
VH: EVQLVESGGGLVQLGGSLRLSCAASGFTFSSYYMSWVRQAPGKGLEWVSTIIKSGGYAYYPDSVKDRFTISRDNSKNTLYLQMNSLRAEDTAVYYCVKGGQGAMDYWGQGTTVTVSS
VL: EIVLTQSPATLSLSPGERATLSCRASQSIGDYLHWYQQKPGQAPRLLIYYASQSISGIPARFSGSGSGTDFTLTISSLEPEDFAVYYCQQGYSFPYTFGGGTKLEIKR
B4: TPP-30789 (antibody, human IgG1, kappa, V domains shown)
VH: EVQLVESGGGLVQPGGSLRLSCAASGFPFSSYYMSWVRQAPGKGLEWVSTIIKSGGYAYYPDSVKDRFTISRDNSKNTLYLQMSSLRAEDTAVYYCVRGGQGAMDYWGQGTTVTVSS
VL: EIVLTQSPATLSLSPGERATLSCRASQSIGDYLHWYQQKPGQAPRLLIKYASQSISGIPARFSGSGSGTDFTLTITSLEPEDFAVYYCQQGYSFPYTFGGGTKLEIKR

The binders below were run against Human Semaphorin3G (Abnova) (human) (UniProt Q9NS98) (assay: ELISA, coated GST-Sema3G, antibody 0.00015-10 ug/ml).
Sequence of Human Semaphorin3G (Abnova) (human) (Q9NS98 23-782 limits assumed, form in doubt): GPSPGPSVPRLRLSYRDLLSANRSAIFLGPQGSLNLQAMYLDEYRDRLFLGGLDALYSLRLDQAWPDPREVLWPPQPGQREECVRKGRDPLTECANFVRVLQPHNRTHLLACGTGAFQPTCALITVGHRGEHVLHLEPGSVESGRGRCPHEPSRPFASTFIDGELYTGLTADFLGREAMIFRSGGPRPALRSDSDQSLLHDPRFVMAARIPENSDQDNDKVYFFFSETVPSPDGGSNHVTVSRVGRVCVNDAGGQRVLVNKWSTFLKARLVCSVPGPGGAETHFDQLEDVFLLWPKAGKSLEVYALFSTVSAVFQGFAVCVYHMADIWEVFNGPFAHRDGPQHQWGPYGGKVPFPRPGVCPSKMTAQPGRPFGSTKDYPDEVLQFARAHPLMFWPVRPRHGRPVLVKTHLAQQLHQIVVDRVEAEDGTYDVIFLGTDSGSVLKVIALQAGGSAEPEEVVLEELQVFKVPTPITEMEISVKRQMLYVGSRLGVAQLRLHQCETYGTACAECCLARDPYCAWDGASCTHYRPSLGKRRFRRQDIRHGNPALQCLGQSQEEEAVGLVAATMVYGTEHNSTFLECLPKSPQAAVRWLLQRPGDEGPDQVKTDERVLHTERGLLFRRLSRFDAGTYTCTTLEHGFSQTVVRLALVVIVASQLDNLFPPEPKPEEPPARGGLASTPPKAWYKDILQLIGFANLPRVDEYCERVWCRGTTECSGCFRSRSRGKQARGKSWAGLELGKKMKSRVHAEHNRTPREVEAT

EC50, > 66.7 µM:
B1
B2
B3
B4
